Source: US12258605B2, “Alkane oxidation by modified hydroxylases” (The California Institute of Technology, priority 2005, dated 2025)
Changes are numbered by the printed parent chain. Names may count otherwise.

B1: 35-E11: P450 BM-3 variant, SEQ ID NO:7: 53-5H substitutions plus E464G and I710T (protein)
chain: TIKEMPQPKTFGELKNLPLLNTDKPVQALMKIADELGEIFKFEAPGCVTRYLSSQRLIKEACDESRFDKNLSQALKFFRDFSGDGLFTSWTHEINWKKAHNILLPSFSQQAMKGYHAMMVDIAVQLVQKWERLNADEHIEVSEDMTRLTLDTIGLCGFNYRFNSFYRDQPHPFIISMVRALDEVMNKLQRANPDDPAYDENKRQCQEDIKVMNDLVDKIIADRKARGEQSDDLLTQMLNGKDPETGEPLDDGNISYQIITFLIAGHETTSGLLSFALYFLVKNPHVLQKVVEEAARVLVDPVPSYKQVKQLKYVGMVLNEALRLWPTFPAFSLYAKEDTVLGGEYPLEKGDEVMVLIPQLHRDKTIWGDDVEEFRPERFENPSAIPQHAFKPFGNGQRACIGQQFALHEATLVLGMMLKHFDFEDHTNYELDIKETLTLKPEGFVVKAKSKKIPLGGIPSPSTGQSAKKVRKKAENAHNTPLLVLYGSNMGTAEGTARDLADIAMSKGFAPQVATLDSHAGNLPREGAVLIVTASYNGHPPDNAKQFVDWLDQASADEVKGVRYSVFGCGDKNWATTYQKVPAFIDETLAAKGAENIADRGEADASDDFEGTYEEWREHMWSDVAAYFNLDIENSEDNKSTLSLQFVDSAADMPLAKMHGAFSTNVVASKELQQPGSARSTRHLEIELPKEASYQEGDHLGVIPRNYEGTVNRVTARFGLDASQQIRLEAEEEKLAHLPLAKTVSVEELLQYVELQDPVTRTQLRAMAAKTVCPPHKVELEALLEKQAYKEQVLAKRLTMLELLEKYPACEMKFSEFIALLPSIRPRYYSISSSPRVDEKQASITVSVVSGEAWSGYGEYKGIASNYLAELQEGDTITCFISTPQSEFTLPKDPETPLIMVGPGTGVAPFRGFVQARKQLKEQGQSLGEAHLYFGCRSPHEDYLYQEELENAQSEGIITLHTAFSRMPNQPKTYVQHVMEQDGKKLIELLDQGAHFYICGDGSQMAPAVEATLMKSYADVHQVSEADARLWLQQLEEKGRYAKDVWAG
modifications: mutant P450 35-E11 protein sequence
B2: 20-D3: P450 BM-3 variant, SEQ ID NO:11; 35-E11 plus H285R (protein)
chain: B1 chain with H285R
modifications: mutant P450 20-D3 protein sequence
notes: 35-E11 plus H285R
B3: P450PMO: P450 BM-3 variant, SEQ ID NO:125; 7-7 plus G443A and D698G; propane monooxygenase (protein)
chain: B1 chain with L52I, A74E, S82G, L188P, I366V, G443A, D698G
modifications: Mutant P450PMO protein sequence
notes: 7-7 plus G443A and D698G; propane monooxygenase
B4: Wild-type BM-3: wild-type cytochrome P450 BM-3 from Bacillus megaterium, SEQ ID NO:1 (protein, listed as Bacillus megaterium)
chain: TIKEMPQPKTFGELKNLPLLNTDKPVQALMKIADELGEIFKFEAPGRVTRYLSSQRLIKEACDESRFDKNLSQALKFVRDFAGDGLFTSWTHEKNWKKAHNILLPSFSQQAMKGYHAMMVDIAVQLVQKWERLNADEHIEVPEDMTRLTLDTIGLCGFNYRFNSFYRDQPHPFITSMVRALDEAMNKLQRANPDDPAYDENKRQFQEDIKVMNDLVDKIIADRKASGEQSDDLLTHMLNGKDPETGEPLDDENIRYQIITFLIAGHETTSGLLSFALYFLVKNPHVLQKAAEEAARVLVDPVPSYKQVKQLKYVGMVLNEALRLWPTAPAFSLYAKEDTVLGGEYPLEKGDELMVLIPQLHRDKTIWGDDVEEFRPERFENPSAIPQHAFKPFGNGQRACIGQQFALHEATLVLGMMLKHFDFEDHTNYELDIKETLTLKPEGFVVKAKSKKIPLGGIPSPSTEQSAKKVRKKAENAHNTPLLVLYGSNMGTAEGTARDLADIAMSKGFAPQVATLDSHAGNLPREGAVLIVTASYNGHPPDNAKQFVDWLDQASADEVKGVRYSVFGCGDKNWATTYQKVPAFIDETLAAKGAENIADRGEADASDDFEGTYEEWREHMWSDVAAYFNLDIENSEDNKSTLSLQFVDSAADMPLAKMHGAFSTNVVASKELQQPGSARSTRHLEIELPKEASYQEGDHLGVIPRNYEGIVNRVTARFGLDASQQIRLEAEEEKLAHLPLAKTVSVEELLQYVELQDPVTRTQLRAMAAKTVCPPHKVELEALLEKQAYKEQVLAKRLTMLELLEKYPACEMKFSEFIALLPSIRPRYYSISSSPRVDEKQASITVSVVSGEAWSGYGEYKGIASNYLAELQEGDTITCFISTPQSEFTLPKDPETPLIMVGPGTGVAPFRGFVQARKQLKEQGQSLGEAHLYFGCRSPHEDYLYQEELENAQSEGIITLHTAFSRMPNQPKTYVQHVMEQDGKKLIELLDQGAHFYICGDGSQMAPAVEATLMKSYADVHQVSEADARLWLQQLEEKGRYAKDVWAG

What was measured:
[1] = Background NADPH oxidation rate in screen (cell lysate, no substrate); format: biochemical; conditions: relative to 35-E11
Method: Libraries of mutants of 35-E11 were screened for phenotypes indicative of either increased product formation on small gaseous substrates slightly larger than methane. Additionally, they were screened for increased coupling of the consumption of NADPH reducing equivalents to product formation. Product formation was determined by measuring total amount of dimethyl ether hydroxylation while increased coupling was determined primarily by decreased background NADPH consumption rates (measured spectrophotometrically at 340 nm in the absence of substrate).
The relative dimethyl ether (DME) activity was measured, 1 hour after treatment with Purpald, as the average net and absorbance at 550 nm from 8 microtitre plate DME reactions of the mutant compared to 8 equivalent reactions of 35-E11. All values were normalized by measuring the P450 concentration in each well with CO binding. “Asteriks” indicate criteria used to select mutants from libraries for further characterization. The oxidation rate is measured as absorbance change at 340 nm over 1 minute upon the addition of NADPH to 8 microtitre plate wells containing P450-containing cell lysate and compared to 8 equivalent reactions of 35-E11. All values were normalized by measuring the P450 concentration in each well with CO binding. The total turnover number (TTN) was measured as the absorbance at 550 nm of methane reactions with each mutant after treatment with alcohol oxidase and […]

[2] = Absorption spectra, spin shift upon incubation with substrate; format: binding; conditions: 3 uM purified P450; incubation with ethane or octane
Method: The absorption spectra for 53-5H and 35-E11 were taken using a 3 uM solution of purified P450 in a quartz cuvette. Upon incubation with ethane, no shift in equilibrium from low- (Amax at 418 nm) to high-spin (Amax at 390 nm) configuration of the ferric P450 was observed.

[3] = Kinetic constants for n-alkanes: pentane; format: biochemical; conditions: N.a. = not active
Method: (§1) Rate measurements. Initial rates of product formation were determined at 25° C. in 100 mM KPi pH 8.0 buffer using purified protein (100 nM) and a substrate concentration of 1.6 mM. In a 5 mL-vial, 20 μL of alkane solution (in ethanol) were dissolved in 400 μL KPi buffer, to which 500 μL enzyme solution at 100-200 nM was added. Reaction was initiated by adding 100 μL of 5 mM NADPH solution, followed by stirring at 300 rpm for 1 minute, and quenched by adding 200 μL chloroform and stirring at 800 rpm for 10 sec. Solutions were transferred to an Eppendorf tube, to which internal standard (10 μL 25 mM 1-bromohexane in ethanol) was added. Tubes were vortexed for 10 sec and centrifuged for 30 sec at 10,000 g. Organic phase was removed and analyzed by GC. For propane, reactions were carried out in a 5 mL-scale using 100-400 nM purified enzyme, propane-saturated buffer (propane concentration≈1.6 mM) and a final NADPH concentration of 500 μM. Reactions were stopped by addition of 200 μL H2SO4 conc. and analyzed by derivatization to alkyl nitrites followed by GC-ECD analysis as described below.
(§2) Products from alkane reactions were identified and quantified by gas chromatography using authentic standards and calibration curves with internal standards. For the reactions with alkanes from pentane to decane, GC analyses were carried out using a Shimadzu GC-17A gas chromatograph, Agilent HP5 column (30 m×0.32 mm×0.1 μm film), 1 μL injection, FID detector, and the following separation program: 250° C. inlet, 250° C. detector, 50° C. oven for 3 min, 5° C./min gradient to 100° C., 25° C./min gradient to 230° C., and 230° C. for 3 min. For butane and propane (TTN) reactions, GC analyses were carried out using a Hewlett-Packard 5890 Series II Plus gas chromatograph, Supelco SPB-1 column (60 m×0.52 mm×0.5 μm film), 0.5 μL injection, FID detector, and the following separation program: 250° C. inlet, 275° C. detector, 80° C. oven for 2 min, 10° C./min gradient to 110° C., 25° C./min gradient to 275° C., and 275° C. for 2.5 min. For ethane and propane (rate) reactions, analysis of reaction mixtures was carried out by derivatization to alkyl nitrites followed by GC-ECD analysis. For laurate, reaction product analysis was carried out by derivatization with N-methyl-N-trimethylsilylheptafluorobutyramide followed by extraction with hexane. Organic solutions were analyzed by FID-GC.
(§3) To further investigate the evolution of substrate specificity, kinetic constants for the C5 to C8 alkanes were determined from Michaelis-Menten plots (Table 19). The preference of 35E11 and its evolutionary predecessors for medium-chain alkanes is indicated by their high C8/C5 specificities ((kcat/Km)8/(kcat/Km)5˜100), where Km appears to be the major contributing factor. […]

[4] = Kinetic constants for n-alkanes: hexane; format: biochemical; conditions: N.a. = not active
Method: as §1, §2, §3

Activity on palmitate = format: biochemical
Method: To evaluate the fate of the enzyme's original function, P450PMO activity was tested on the long-chain fatty acids laurate and palmitate.

[5] = myristate; cited from earlier work

Molecule | Relative background NADPH oxidation rate [1] | shift from low- to high-spin ferric P450 [2] | Km [3] | kcat [3] | Km [4] | kcat [4] | hydroxylated fatty acids formed (Activity on palmitate) | Coupling efficiency [5]
B1 | 1 | behaved identically | 1030 ± 57 µM | 12.7 ± 0.867 s⁻¹ | 370 ± 33 µM | 11.8 ± 1.15 s⁻¹ | – | –
B2 | 1.6 | – | – | – | – | – | – | –
B3 | – | – | 835 ± 117 µM | 2.5 ± 0.233 s⁻¹ | 430 ± 91 µM | 1.42 ± 0.283 s⁻¹ | no detectable amounts of hydroxylated fatty acids | –
B4 | – | – | – | – | – | – | – | 88%
